Legend:
Test in all cases: peptide array
Peptide_010 = molecular target: T1, Peptide_010 (human)
T1 peptide: SPLQTPTEDGSEEPG
In short: (§1)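 Overlapping 15-mer peptides (5-aa offset) spanning human 2N4R Tau spotted in triplicate on slides; antibodies bound 2 h at room temperature in 3% BSA-TBST (chimeric IgG 5 μg/mL; mouse IgG 30 μg/mL). Detection 1 h with fluorescent anti-human (568 nm) or anti-mouse (647 nm) secondary; fluorescence imaging aligned to array map.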

Peptide_008 = molecular target: T2, Peptide_008 (human)
T2 peptide: EGDTDAGLKESPLQT
In short: as §1

Peptide_005 = molecular target: T3, Peptide_005 (human)
T3 peptide: GDRKDQGGYTMHQDQ
In short: as §1

Peptide_003 = molecular target: T4, Peptide_003 (human)
T4 peptide: MEDHAGTYGLGDRKD
In short: as §1

Peptide_002 = molecular target: T5, Peptide_002 (human)
T5 peptide: QEFEVMEDHAGTYGL
In short: as §1

Peptide_021 = molecular target: T6, Peptide_021 (human)
T6 peptide: TTAEEAGIGDTPSLE
In short: as §1

Peptide_020 = molecular target: T7, Peptide_020 (human)
T7 peptide: EIPEGTTAEEAGIGD
In short: as §1

Peptide_018 = molecular target: T8, Peptide_018 (human)
T8 peptide: GKQAAAQPHTEIPEG
In short: as §1

Peptide_016 = molecular target: T9, Peptide_016 (human)
T9 peptide: TAPLVDEGAPGKQAA
In short: as §1

Peptide_014 = molecular target: T10, Peptide_014 (human)
T10 peptide: AKSTPTAEDVTAPLV
In short: as §1

Peptide_036 = molecular target: T11, Peptide_036 (human)
T11 peptide: PPAPKTPPSSGEPPK
In short: as §1

Peptide_025 = molecular target: T12, Peptide_025 (human)
T12 peptide: HVTQARMVSKSKDGT
In short: as §1

process-control peptide = molecular target: T13, process-control peptide
T13 construct: array control, not a Tau peptide
T13 peptide: GGSGGGSDYKDDDDK
In short: as §1

Peptide_047 = molecular target: T14, Peptide_047 (human)
T14 peptide: TPPKSPSSAKSRLQT
In short: as §1

Peptide_041 = molecular target: T15, Peptide_041 (human)
T15 peptide: GSPGTPGSRSRTPSL
In short: as §1

Peptide_040 = molecular target: T16, Peptide_040 (human)
T16 peptide: GYSSPGSPGTPGSRS
In short: as §1

Peptide_037 = molecular target: T17, Peptide_037 (human)
T17 peptide: TPPSSGEPPKSGDRS
In short: as §1

Peptide_058 = molecular target: T18, Peptide_058 (human)
T18 peptide: NVQSKCGSKDNIKHV
In short: as §1

Peptide_057 = molecular target: T19, Peptide_057 (human)
T19 peptide: KLDLSNVQSKCGSKD
In short: as §1

Peptide_055 = molecular target: T20, Peptide_055 (human)
T20 peptide: GGGKVQIINKKLDLS
In short: as §1

Peptide_054 = molecular target: T21, Peptide_054 (human)
T21 peptide: LKHQPGGGKVQIINK
In short: as §1

Peptide_053 = molecular target: T22, Peptide_053 (human)
T22 peptide: GSTENLKHQPGGGKV
In short: as §1

Peptide_052 = molecular target: T23, Peptide_052 (human)
T23 peptide: VKSKIGSTENLKHQP
In short: as §1

Peptide_049 = molecular target: T24, Peptide_049 (human)
T24 peptide: SRLQTAPVPMPDLKN
In short: as §1

Peptide_048 = molecular target: T25, Peptide_048 (human)
T25 peptide: PSSAKSRLQTAPVPM
In short: as §1

Peptide_070 = molecular target: T26, Peptide_070 (human)
T26 peptide: FKDRVQSKIGSLDNI
In short: as §1

Peptide_067 = molecular target: T27, Peptide_067 (human)
T27 peptide: KPGGGQVEVKSEKLD
In short: as §1

Peptide_062 = molecular target: T28, Peptide_062 (human)
T28 peptide: VQIVYKPVDLSKVTS
In short: as §1

Peptide_061 = molecular target: T29, Peptide_061 (human)
T29 peptide: PGGGSVQIVYKPVDL
In short: as §1

Peptide_060 = molecular target: T30, Peptide_060 (human)
T30 peptide: NIKHVPGGGSVQIVY
In short: as §1

Peptide_080 = molecular target: T31, Peptide_080 (human)
T31 peptide: SPVVSGDTSPRHLSN
In short: as §1

Peptide_075 = molecular target: T32, Peptide_075 (human)
T32 peptide: IETHKLTFRENAKAK
In short: as §1

Peptide_072 = molecular target: T33, Peptide_072 (human)
T33 peptide: SLDNITHVPGGGNKK
In short: as §1

Peptide_087 = molecular target: T34, Peptide_087 (human)
T34 peptide: TLADEVSASLAKQGL
In short: as §1

Peptide_086 = molecular target: T35, Peptide_086 (human)
T35 peptide: ATLADEVSASLAKQG
In short: as §1

B1: chimeric IgG clone 1D10 (antibody, V domains shown)
VH: EVQLQQSGAELVRPGASVKLSCTASGFNIKDSLMHWMKQRPEQGLEWIGWIDPEDGETKYAPKFQDKATLTADTSSNAAYLQLSSLTSEDTAIYYCVRGDWDGGYWGQGTTLTVSS
VL: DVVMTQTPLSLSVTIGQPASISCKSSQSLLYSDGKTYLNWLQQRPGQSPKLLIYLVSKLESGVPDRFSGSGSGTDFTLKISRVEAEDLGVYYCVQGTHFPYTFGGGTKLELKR
notes: mouse-human chimeric IgG from HEK293
B1: no binding (tested: 5 ug/mL) (Peptide_010); no binding (tested: 5 ug/mL) (Peptide_008); no binding (tested: 5 ug/mL) (Peptide_005). B1: no binding (tested: 5 ug/mL) (Peptide_003); no binding (tested: 5 ug/mL) (Peptide_002); no binding (tested: 5 ug/mL) (Peptide_021). B1: no binding (tested: 5 ug/mL) (Peptide_020); no binding (tested: 5 ug/mL) (Peptide_018); no binding (tested: 5 ug/mL) (Peptide_016). B1: no binding (tested: 5 ug/mL) (Peptide_014); no binding (tested: 5 ug/mL) (Peptide_036); no binding (tested: 5 ug/mL) (Peptide_025). B1: no binding (tested: 5 ug/mL) (process-control peptide); no binding (tested: 5 ug/mL) (Peptide_047); no binding (tested: 5 ug/mL) (Peptide_041). B1: no binding (tested: 5 ug/mL) (Peptide_040); no binding (tested: 5 ug/mL) (Peptide_037); no binding (tested: 5 ug/mL) (Peptide_058). B1: no binding (tested: 5 ug/mL) (Peptide_057); no binding (tested: 5 ug/mL) (Peptide_055); no binding (tested: 5 ug/mL) (Peptide_054). B1: no binding (tested: 5 ug/mL) (Peptide_053); binds (Peptide_052); no binding (tested: 5 ug/mL) (Peptide_049). B1: no binding (tested: 5 ug/mL) (Peptide_048); binds (Peptide_070); no binding (tested: 5 ug/mL) (Peptide_067). B1: no binding (tested: 5 ug/mL) (Peptide_062); no binding (tested: 5 ug/mL) (Peptide_061); no binding (tested: 5 ug/mL) (Peptide_060). B1: no binding (tested: 5 ug/mL) (Peptide_080); no binding (tested: 5 ug/mL) (Peptide_075); no binding (tested: 5 ug/mL) (Peptide_072). B1: no binding (tested: 5 ug/mL) (Peptide_087); no binding (tested: 5 ug/mL) (Peptide_086).

B2: murine anti-Tau hybridoma antibody 17G2.A1 (antibody, V domains shown)
VH: QVQLQQPGAELVGPGSSVKLSCKASGYTFINYWIDWMKQSPGQGLEWIGNIYPSDSESHYNQKFTDKATLTVDISSSTAYLQLSSLTSEDSAVYYCALYSKGYWGQGTSVTVSS
VL: DVLMTQTPLSLPVTLGDQASISCRSSQNIVHTNGNTYLEWYLQKPGQSPKLLIYKLSSRFSGVPDRFSGSGSGTDFTLKISRVEAEDLGVYYCFQGSHLPFTFGGGTKLEIKR
notes: mouse IgG from hybridoma; also called anti-Tau 17G2.A1
B2: no binding (tested: 30 ug/mL) (Peptide_010); no binding (tested: 30 ug/mL) (Peptide_008); no binding (tested: 30 ug/mL) (Peptide_005). B2: no binding (tested: 30 ug/mL) (Peptide_003); no binding (tested: 30 ug/mL) (Peptide_002); no binding (tested: 30 ug/mL) (Peptide_021). B2: no binding (tested: 30 ug/mL) (Peptide_020); no binding (tested: 30 ug/mL) (Peptide_018); no binding (tested: 30 ug/mL) (Peptide_016). B2: no binding (tested: 30 ug/mL) (Peptide_014); no binding (tested: 30 ug/mL) (Peptide_036); no binding (tested: 30 ug/mL) (Peptide_025). B2: no binding (tested: 30 ug/mL) (process-control peptide); no binding (tested: 30 ug/mL) (Peptide_047); no binding (tested: 30 ug/mL) (Peptide_041). B2: no binding (tested: 30 ug/mL) (Peptide_040); no binding (tested: 30 ug/mL) (Peptide_037); no binding (tested: 30 ug/mL) (Peptide_058). B2: no binding (tested: 30 ug/mL) (Peptide_057); no binding (tested: 30 ug/mL) (Peptide_055); no binding (tested: 30 ug/mL) (Peptide_054). B2: no binding (tested: 30 ug/mL) (Peptide_053); no binding (tested: 30 ug/mL) (Peptide_052); no binding (tested: 30 ug/mL) (Peptide_049). B2: no binding (tested: 30 ug/mL) (Peptide_048); no binding (tested: 30 ug/mL) (Peptide_070); no binding (tested: 30 ug/mL) (Peptide_067). B2: no binding (tested: 30 ug/mL) (Peptide_062); no binding (tested: 30 ug/mL) (Peptide_061); no binding (tested: 30 ug/mL) (Peptide_060). B2: no binding (tested: 30 ug/mL) (Peptide_080); no binding (tested: 30 ug/mL) (Peptide_075); no binding (tested: 30 ug/mL) (Peptide_072). B2: no binding (tested: 30 ug/mL) (Peptide_087); no binding (tested: 30 ug/mL) (Peptide_086).
